The results in this text go back to patent US20170274038A1.

This assay deals with angiotensin AT1 receptor (on human umbilical vein endothelial cells) (human) (UniProt P30556). In words: cell-based or functional assay.
Sequence of UniProt P30556 (P30556 whole entry): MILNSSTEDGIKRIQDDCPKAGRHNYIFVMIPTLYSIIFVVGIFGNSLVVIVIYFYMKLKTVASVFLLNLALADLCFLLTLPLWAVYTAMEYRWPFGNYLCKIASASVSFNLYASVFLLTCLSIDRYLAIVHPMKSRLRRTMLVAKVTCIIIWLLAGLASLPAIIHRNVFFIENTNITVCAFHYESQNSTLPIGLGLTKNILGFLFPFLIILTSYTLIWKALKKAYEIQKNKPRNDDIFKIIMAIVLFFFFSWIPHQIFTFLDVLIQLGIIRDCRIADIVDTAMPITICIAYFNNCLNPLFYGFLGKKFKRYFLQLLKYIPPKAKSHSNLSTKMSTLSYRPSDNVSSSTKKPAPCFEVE

“des-aspartate-angiotensin I (from UniProt P01019 26-34) (peptide)” displayed a release of PGE2 and PGI2 from HUVEC (effective concentration of DAA-I) of 100 pM.
